Data taken from the supplement of paper PMC9112550, “Optimization of the antimicrobial peptide Bac7 by deep mutational scanning” (BMC Biology, 2022).

system: Escherichia coli TOP10; test: shrunken log2 fold change of peptide-encoding DNA abundance (4.5 h post-induction vs induction); higher = less antimicrobial activity (less host growth inhibition); details: time post-induction: 4.5 h; library: site-saturation at positions 5, 18, 19, 20
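Note: peptides expressed intracellularly from a pBAD plasmid library in pooled LB shake-flask culture, induced with 0.3% L-arabinose, DNA abundance read by NGS, three biological replicates, DESeq2 with apeglm shrinkage.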

Sequence	shrunken log2 fold change
RRIRFRPPRLPRPRPRPYMLPRP	-0.61
RRIRARPPRLPRPRPRPVYHPRP	-0.321
RRIRSRPPRLPRPRPRPYAMPRP	-0.909
RRIRVRPPRLPRPRPRPHVAPRP	-0.0516
RRIRIRPPRLPRPRPRPYYGPRP	-2.94
RRIRNRPPRLPRPRPRPVHGPRP	-0.0581
RRIRDRPPRLPRPRPRPYAAPRP	-0.2
RRIRKRPPRLPRPRPRPFRHPRP	-0.0849
RRIRERPPRLPRPRPRPVANPRP	-0.068
RRIRWRPPRLPRPRPRPNQRPRP	0.181
RRIRYRPPRLPRPRPRPDEWPRP	0.0549
RRIRKRPPRLPRPRPRPDKSPRP	0.0207
RRIRRRPPRLPRPRPRPIAPPRP	0.702
RRIRGRPPRLPRPRPRPPGQPRP	0.976
RRIRRRPPRLPRPRPRPICGPRP	-0.0231
RRIRGRPPRLPRPRPRPYWLPRP	-0.0478
RRIRQRPPRLPRPRPRPWYMPRP	-0.237
RRIRNRPPRLPRPRPRPKYDPRP	-0.624
RRIRKRPPRLPRPRPRPRWIPRP	0.112
RRIRSRPPRLPRPRPRPGYKPRP	-0.084
RRIRTRPPRLPRPRPRPSWIPRP	-0.525
RRIRQRPPRLPRPRPRPNIEPRP	-0.0328
RRIRCRPPRLPRPRPRPCQKPRP	-0.103
RRIRMRPPRLPRPRPRPQTYPRP	0.144
RRIRIRPPRLPRPRPRPRNEPRP	0.227

Sequence	shrunken log2 fold change
RRIRDRPPRLPRPRPRPTGTPRP	0.0829
RRIRFRPPRLPRPRPRPRLCPRP	0.276
RRIRKRPPRLPRPRPRPSQGPRP	0.0922
RRIRNRPPRLPRPRPRPINTPRP	-0.574
RRIRQRPPRLPRPRPRPRDVPRP	-0.0705
RRIRHRPPRLPRPRPRPCWRPRP	0.0476
RRIRCRPPRLPRPRPRPTNRPRP	-0.356
RRIRDRPPRLPRPRPRPFNWPRP	0.0464
RRIRFRPPRLPRPRPRPRPEPRP	0.477
RRIRQRPPRLPRPRPRPTCAPRP	0.406
RRIRMRPPRLPRPRPRPKTHPRP	0.612
RRIRVRPPRLPRPRPRPLQYPRP	1.72
RRIRHRPPRLPRPRPRPPPLPRP	0.651
RRIRSRPPRLPRPRPRPSDKPRP	-0.351
RRIRGRPPRLPRPRPRPSCKPRP	0.319
RRIRMRPPRLPRPRPRPAWQPRP	0.197
RRIRARPPRLPRPRPRPYFFPRP	-0.225
RRIRQRPPRLPRPRPRPQTAPRP	-0.000297
RRIRERPPRLPRPRPRPFVGPRP	-0.143
RRIRPRPPRLPRPRPRPLATPRP	0.605
RRIRQRPPRLPRPRPRPWKGPRP	0.013
RRIRMRPPRLPRPRPRPYRRPRP	0.0224
RRIRHRPPRLPRPRPRPADGPRP	-0.279
RRIRFRPPRLPRPRPRPRAGPRP	0.614
RRIRSRPPRLPRPRPRPDPYPRP	-0.312

Sequence	shrunken log2 fold change
RRIRNRPPRLPRPRPRPALTPRP	-0.158
RRIRCRPPRLPRPRPRPLHDPRP	0.0221
RRIRDRPPRLPRPRPRPYLVPRP	-0.506
RRIRERPPRLPRPRPRPFLHPRP	-0.332
RRIRRRPPRLPRPRPRPVITPRP	-0.554
RRIRIRPPRLPRPRPRPHHEPRP	-0.0701
RRIRVRPPRLPRPRPRPNADPRP	-0.00824
RRIRKRPPRLPRPRPRPVIFPRP	0.265
RRIRSRPPRLPRPRPRPVHYPRP	-0.707
RRIRCRPPRLPRPRPRPIFLPRP	-0.257
RRIRGRPPRLPRPRPRPTMLPRP	0.52
RRIRFRPPRLPRPRPRPTKNPRP	-0.0239
RRIRKRPPRLPRPRPRPDGPPRP	0.022
RRIRDRPPRLPRPRPRPDTHPRP	0.17
RRIRCRPPRLPRPRPRPRTFPRP	-0.24
RRIRLRPPRLPRPRPRPCPCPRP	-0.0536
RRIRGRPPRLPRPRPRPCSVPRP	0.394
RRIRARPPRLPRPRPRPMLIPRP	0.0528
RRIRQRPPRLPRPRPRPGFNPRP	-0.119
RRIRNRPPRLPRPRPRPNHVPRP	-0.117
RRIRTRPPRLPRPRPRPMYKPRP	-0.0126
RRIRNRPPRLPRPRPRPLQKPRP	-0.0108
RRIRRRPPRLPRPRPRPWFAPRP	0.204
RRIRCRPPRLPRPRPRPRCLPRP	-0.32
RRIRERPPRLPRPRPRPSGPPRP	-0.203
